The target of assay [1] is T1, CD74 (invariant chain, Ii) (human, UniProt P04233 1-296).
T1 construct: whole, on cells; Endogenous antigen of human cancer cell lines; measured on the surface only or on surface plus cytoplasm (permeabilized cells)
T1 sequence (looked up): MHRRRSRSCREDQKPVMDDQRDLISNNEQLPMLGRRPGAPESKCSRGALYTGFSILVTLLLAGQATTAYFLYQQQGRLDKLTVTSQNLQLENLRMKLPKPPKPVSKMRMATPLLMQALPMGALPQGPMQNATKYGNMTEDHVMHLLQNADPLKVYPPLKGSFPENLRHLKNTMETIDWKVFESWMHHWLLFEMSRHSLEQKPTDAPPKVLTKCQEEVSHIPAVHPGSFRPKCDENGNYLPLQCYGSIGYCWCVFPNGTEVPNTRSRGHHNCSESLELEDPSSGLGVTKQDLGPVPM
In words: flow cytometry, membrane-only, A-375 cells. A general note: Flow cytometry measures light scatter and fluorescence of single cells or particles in a stream.

In assay [2] the target is T1, CD74 (invariant chain, Ii). Put plainly: flow cytometry, membrane-only, NCI-N87 cells.
The target in assay [3] is T1, CD74 (invariant chain, Ii). In words: flow cytometry, permeabilized Capan-1 cells.
In assay [4] the target is T1, CD74 (invariant chain, Ii). In words: flow cytometry, permeabilized NCI-N87 cells.
In assay [5] the target is T1, CD74 (invariant chain, Ii). Put plainly: flow cytometry, permeabilized HuH-7 cells.
Assay [6] has as its target T1, CD74 (invariant chain, Ii). In words: flow cytometry, membrane-only, Raji cells.
In assay [7] the target is T1, CD74 (invariant chain, Ii). Put plainly: flow cytometry, permeabilized Raji cells.
For assay [8], the target named is T1, CD74 (invariant chain, Ii). In words: flow cytometry, permeabilized Hep-G2 cells.
Assay [9] deals with T1, CD74 (invariant chain, Ii). In words: flow cytometry, membrane-only, Hs746T cells.
In assay [10] the target is T1, CD74 (invariant chain, Ii). Put plainly: flow cytometry, membrane-only, Hep-G2 cells.
For assay [11], the target named is T1, CD74 (invariant chain, Ii). In words: flow cytometry, permeabilized A-375 cells.
Assay [12] addresses T1, CD74 (invariant chain, Ii). In words: flow cytometry, membrane-only, HuH-7 cells.
For assay [13], the target named is T1, CD74 (invariant chain, Ii). In words: cell binding assay on antigen-positive cells.
Assay [14] addresses T1, CD74 (invariant chain, Ii). In words: flow cytometry, permeabilized Hs746T cells.
For assay [15], the target named is T1, CD74 (invariant chain, Ii). In words: flow cytometry, membrane-only, Capan-1 cells.

B1: Milatuzumab (humanized anti-CD74 antibody, hLL1) (antibody, V domains shown)
VH: QVQLQQSGSELKKPGASVKVSCKASGYTFTNYGVNWIKQAPGQGLQWMGWINPNTGEPTFDDDFKGRFAFSLDTSVSTAYLQISSLKADDTAVYFCSRSRGKNEAWFAYWGQGTLVTVSS
VL: DIQLTQSPLSLPVTLGQPASISCRSSQSLVHRNGNTYLHWFQQRPGQSPRLLIYTVSNRFSGVPDRFSGSGSGTDFTLKISRVEAEDVGVYFCSQSSHVPPTFGAGTRLEIK
By Kd is commonly meant a measure of binding affinity in units of concentration. Lower therefore signals tighter binding. For the molecule B1, the “MFI Ratio hLL1:bkgd (surface)” value in assay [1] came to 5.3; in assay [2] it was 1.3; in assay [6] it was 19.6; in assay [9], 2.1; in [10] it was 1.5; in assay [12] it was 1.6. Moreover, in assay [15], the “MFI Ratio hLL1:bkgd (surface)” value is 1.8. The “MFI Ratio hLL1:bkgd (surface and cytoplasmic)” value amounted to 49.6 in assay [3]; 36.7 in assay [4]; 28.5 in [5]; 28.6 in [7]; 31.2 in [8]; 30.8 in assay [11]. Further, in assay [14], the “MFI Ratio hLL1:bkgd (surface and cytoplasmic)” value came out at 28.8. Besides, in assay [13], the dissociation constant Kd worked out at 0.77 nM.
